Values joined by “and” are separate entries in the source; they are usually repeats but may differ in a detail not shown here. Equal entries are not always repeated.
T1: recombinant, full-length human claudin-1 (human), O95832
T1 chain: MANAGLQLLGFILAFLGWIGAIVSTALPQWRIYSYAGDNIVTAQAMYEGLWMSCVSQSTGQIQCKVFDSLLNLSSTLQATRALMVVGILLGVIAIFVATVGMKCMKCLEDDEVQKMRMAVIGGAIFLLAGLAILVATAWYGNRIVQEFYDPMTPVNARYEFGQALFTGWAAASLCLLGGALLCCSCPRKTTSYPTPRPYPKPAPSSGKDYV


How the values were obtained:
[1] = target: recombinant, full-length human claudin-1 (human) (UniProt O95832); test: dynamic light scattering; purified proteins in detergent micelles (claudin-1 in foscholine-10, CD81 and CD82 in βOG) mixed at a 1:2 molar ratio, with and without CHEMS, 20 mM MOPS pH 8, 1% βOG, 20°C, followed for 23-36 h
[2] = target: recombinant, full-length human CD81 with six putative palmitoylation sites mutated to alanine (human) (UniProt P60033); test: dynamic light scattering; single purified proteins in detergent micelles (claudin-1 in foscholine-10, CD81 in βOG), with and without CHEMS, 20°C; oligomeric state predicted from the hydrodynamic radius
[3] = target: T1, recombinant, full-length human …; test: non-reducing SDS-PAGE with immunoblot; P. pastoris total membranes, 1 µg protein per well, sample buffer without β-mercaptoethanol, 12% gel, blot with anti-His6; settings: remark: other sources report otherwise
[4] = target: T1, recombinant, full-length human …; test: reducing SDS-PAGE (Coomassie); proteins solubilised in βOG and eluted from a nickel affinity column; settings: remark: other sources report otherwise
[5] = target: T1, recombinant, full-length human …; test: dynamic light scattering; single purified proteins in detergent micelles (claudin-1 in foscholine-10, CD81 in βOG), with and without CHEMS, 20°C; oligomeric state predicted from the hydrodynamic radius; settings: remark: other sources report otherwise
[6] = target: T1, recombinant, full-length human …; test: AUC; claudin-1 in βOG micelles; sedimentation velocity, continuous c(s) distribution model (SEDFIT); settings: remark: other sources report otherwise

Molecule	stoichiometry N [1]	stoichiometry N [2]	stoichiometry N [3]	stoichiometry N [4]	stoichiometry N [5]	stoichiometry N [6]
recombinant, full-length human CD81 with six putative palmitoylation sites mutated to alanine (from UniProt P60033 1-236) (natural protein)	2	2	–	–	–	–
recombinant, full-length human claudin-1, O95832 1-211 (natural protein) MANAGLQLLGFILAFLGWIGAIVSTALPQWRIYSYAGDNIVTAQAMYEGLWMSCVSQSTGQIQCKVFDSLLNLSSTLQATRALMVVGILLGVIAIFVATVGMKCMKCLEDDEVQKMRMAVIGGAIFLLAGLAILVATAWYGNRIVQEFYDPMTPVNARYEFGQALFTGWAAASLCLLGGALLCCSCPRKTTSYPTPRPYPKPAPSSGKDYV	–	–	2 and 3	2	2	2

Reference: publication PMC3660353
